Measured values as given in patent US20040248233A1 (Dana-Farber, published 2004).
Changes are numbered by the printed parent chain. Ends that are not written are not given here.

B1: Pro564Ala Gal4-HA-HIF1α (530-652) (other)
chain: EFKLELVEKLFAEDTEAKNPFSTQDTDLDLEMLAAYIPMDDDFQLRSFDQLSPLESSSASPESASPQSTVTVFQQTQIQEPTANATTTTATTDELKTVTKDRMEDIKILIASPSPTHIHKETT
notes: range 530-652; also called Gal4-ODD Pro564Ala; not shown: Gal4 moiety and HA tag
B2: Leu562Ala Gal4-HA-HIF1α (530-652) (other)
chain: B1 chain with L33A, A35P
notes: range 530-652; also called Gal4-ODD Leu562Ala; not shown: Gal4 moiety and HA tag

How the values were obtained:
[1] = biological target: T1, pVHL (HA-tagged: 35S-HA-pVHL in vitro translate, or HA-pVHL produced in ts20 and WT8 cells) (UniProt P40337 1-213); experiment: biotinylated peptide, pVHL binding
T1 construct: Also used for sentences that say only 'pVHL'; In cell lysates pVHL is in complex with elongin B, elongin C and Cul2; also called 35S-labeled pVHL; HA-VHL; not shown: HA tag
T1 sequence (P40337 whole entry): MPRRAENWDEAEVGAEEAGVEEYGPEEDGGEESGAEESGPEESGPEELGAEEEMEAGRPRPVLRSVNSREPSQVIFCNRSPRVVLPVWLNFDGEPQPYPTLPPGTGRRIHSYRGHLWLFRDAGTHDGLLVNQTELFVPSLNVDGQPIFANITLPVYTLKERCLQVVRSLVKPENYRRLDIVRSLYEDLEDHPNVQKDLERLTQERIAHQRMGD

[2] = biological target: T1, pVHL (HA-tagged: 35S-HA-pVHL in vitro …); experiment: biotinylated peptide on avidin Sepharose, 35S-pVHL
[3] = biological target: T2, GST-VHL, elongin B, elongin C complexes (GST-VBC), immobilized on glutathione sepharose (UniProt P40337 54-213; Q15370 1-118; Q15369 17-112); experiment: capture with immobilized GST-VBC
T2 construct: also called VBC-GST; GST-pVHL, elongin B, elongin C complexes

Binder	binding result [1]	binding result [3]	also measured
DLDLEMLAPYIPADDDFQLR (peptide, UniProt Q16665 556-575, looked up, also: biotinylated (position not given here)) [biotinylated HIF (556-575) peptide with the single substitution Met568 to alanine]	binds		
DLDLEALAPYIPADDDFQLR (peptide, UniProt Q16665 556-575, looked up, also: biotinylated (position not given here), also called double alanine substitution) [biotinylated HIF (556-575) peptide with Met561 and Met568 converted to alanine]	binds		
DLDLEMLAAYIPMDDDFQLR (peptide, UniProt Q16665 556-575, looked up, also: biotinylated (position not given here)) [biotinylated HIF1α (556-575) peptide Pro564Ala]			binding result [2]: no binding
B1		no binding	
B2		no binding	
DLDLEALAPYIPMDDDFQLR (peptide, UniProt Q16665 556-575, looked up, also: biotinylated (position not given here)) [biotinylated HIF (556-575) peptide with the single substitution Met561 to alanine]	binds		
